Source: the supplement of paper PMC12338614

B1: library; numbered along this chain (parent)
chain: MEVVDPQQLGMFTEGELMSVGMDTFIHRIDSTEVIYQPRRKRAKLIGKYLMGDLLGEGSYGKVKEVLDSETLCRRAVKILKKKKLRRIPNGEANVKKEIQLLRRLRHKNVIQLVDVLYNEEKQKMYMVMEYCVCGMQEMLDSVPEKRFPVCQAHGYFCQLIDGLEYLHSQGIVHKDIKPGNLLLTTGGTLKISDLGVAEALHPFAADDTCRTSQGSPAFQPPEIANGLDTFSGFKVDIWSAGVTLYNITTGLYPFEGDNIYKLFENIGKGSYAIPGDCGPPLSDLLKGMLEYEPAKRFSIRQIRQHSWFRKKHPPAEAPVPIPPSPDTKDRWRSMTVVPYLEDLHGADEDEDLFDIEDDIIYTQDFTVPGQVPEEEASHNGQRRGLPKAVCMNGTEAAQLSTKSRAEGRAPNPARKACSASSKIRRLSACKQQ

Variants of: B1
Assay: STK11 functional score (HeLa growth suppression), rescaled enrichment; synonymous median = 1, nonsense median = 0 (normalised score)
Conditions: with HeLa; variant type: missense
Outline: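 The values are functional scores: wild-type-corrected log ratios of post- versus pre-selection abundance, rescaled to synonymous and nonsense medians, merged over codons and replicate transfections, and carrying bootstrapped error. They derive from codon-randomised (POPCode), codon-optimised STK11 libraries that Bxb1 integrated at an AAVS1 landing pad in HeLa, with three transfections for each of three regions. Sequencing of tiled gDNA amplicons ran on NextSeq, at ~2 million reads per tile.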

STK11 functional score, by site and new letter:
A205: Q 1.33; V 1.09; W 1.7; S 1.18; D 1.33
A206: N 1.66; D 1.07; V 0.497; F 0.495; T 0.479; S 1.17; L 1.03; R 1.64; P 1.24; G 1.14; I 1.46; E 0.305; Q 1.07; W 0.035
F204: W 1.3; D 1.09; Y 0.593; I 1.23; G 1.3; A 1.03; L 1.17; V 1.24; H 1.67; C 0.849; R 0.931
E199: I 0.977; H 1.39; F 1.37; N 1.54; R 1.67; V 1.49; Q 0.887; A 1.44; W 0.303; K 1.2; S 1.21; Y 1.04; P 0.87; G 1.07; C 1.38; L 0.971
D208: W 0.524; R 1.59; V 1.06; N 1.4; C 1.26; A 1.19; P 1.62; S 1.26; T 1.04; L 1.36; Y 0.93; I 1.31; M 1.7; E 1.38; Q 1.58; G 1.37
K191: F 0.589; N 0.186; C 0.0918; A 1.12; I 1.19; R 1.42; L 0.262; D -0.393; V 1.19; W 0.459; G 0.729; T 1.16; S 1.17
S193: C 0.963; M 0.111; K 0.0789; Y -0.104; L 0.696; V 0.77; T 1.22; W 0.0192; H 0.192; F -0.0251; A 0.853; N 1.61; I 1.17; R -0.142; E 1.54; G 0.596
A200: P 1.35; I 1.31; S 0.652; D 0.859; Y 1.29; G 0.439; V 0.901; M 1.65; H 1.49; F 0.455; L 0.6; C 1.13; W 0.861; T 1.02; R 0.878
T189: P 1.12; R 1.41; V 1.3; N 0.455; W 1.2; Y 0.71
T212: D 1.48; G 1.3; I 1.13; N 0.481; E 1.65; S 0.909; H 1.59; V 0.545; L 1.06; M 0.927; A 1.41; Y 1.38; Q 1.65; R 1.48; C 1.32; W 1.41; P 0.926
Q214: V 0.919; P 0.598; G 1.57; F 1.04; S 0.787; L 1.05; H 1.39; D 1.33; T 1.64; A 1.18; N 1.27; I 1.05; M 1.66; W 0.779; E 1.36; C 0.896; R 1.45
T209: A 1.2; E 1.17; C 1.12; S 0.82; V 1.42; F 0.568; Q 1.5; I 0.703; H 1.34; N 1.51; L 1; R 1.27; G 1.36; W 1.28; P 1.27; M 1.43
P203: R 1.01; H 0.686; L 1.27; S 1.68; A 0.904
